Experimental data published in patent US20240141060A1 (Novartis, published 2024).

Columns and labels:
[1] = target: T1, Cynomolgus CD73/NT5E Protein (His Tag) (Sino Biological Cat: 90192-C08H-50) (cynomolgus monkey, UniProt A0A2K5V5U7 27-547); assay: Biacore SPR, His-tagged CD73 captured by anti-His antibody on CM5 chip, IgG as analyte, 1:1 model
T1 construct: treated as one protein; also called Cynomolgus CD73-His; recombinant cynomolgus monkey CD73; not shown: His tag
T1 sequence: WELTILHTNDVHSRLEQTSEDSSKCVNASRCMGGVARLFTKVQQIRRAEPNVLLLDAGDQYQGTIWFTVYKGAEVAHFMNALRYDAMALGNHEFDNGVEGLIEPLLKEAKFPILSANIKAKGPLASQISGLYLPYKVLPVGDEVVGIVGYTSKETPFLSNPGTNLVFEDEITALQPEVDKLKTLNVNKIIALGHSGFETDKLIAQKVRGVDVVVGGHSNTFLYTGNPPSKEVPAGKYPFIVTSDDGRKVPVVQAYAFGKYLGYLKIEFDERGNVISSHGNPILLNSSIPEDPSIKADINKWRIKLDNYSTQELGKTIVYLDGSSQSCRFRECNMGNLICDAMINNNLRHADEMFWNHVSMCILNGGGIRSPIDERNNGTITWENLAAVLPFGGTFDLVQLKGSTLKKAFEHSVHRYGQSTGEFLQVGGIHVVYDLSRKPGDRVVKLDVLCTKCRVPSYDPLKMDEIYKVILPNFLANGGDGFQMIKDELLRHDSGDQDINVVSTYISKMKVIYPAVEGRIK
Experimental: (§1) The anti-His Ab was directly immobilized onto a CM5 chip surface by amine coupling. The His-tagged human CD73/His, cynomolgus monkey CD73/His, mouse CD73/His or rat CD73/His was flowed over and captured at a desired resonance unit (RU) for an Rmax of 20. Antibody analyte concentrations in serial dilutions of IgG or Fab were flowed over at 60 μL/min. The sensorgrams were analyzed using the manufacturer's software for a 1:1 binding model.
(§2) Therefore, given that 1:1 bidentate binding will favor avidity, the whole Ab affinities were used rather than Fab measurements.

[2] = target: T2, Recombinant Human 5′-Nucleotidase/CD73 Protein, CF (R&D Systems Cat: 5795-EN) (human, UniProt P21589 27-547); assay: as above
T2 construct: Bought protein; also called Human CD73-His; recombinant human CD73; not shown: His tag
T2 sequence (looked up): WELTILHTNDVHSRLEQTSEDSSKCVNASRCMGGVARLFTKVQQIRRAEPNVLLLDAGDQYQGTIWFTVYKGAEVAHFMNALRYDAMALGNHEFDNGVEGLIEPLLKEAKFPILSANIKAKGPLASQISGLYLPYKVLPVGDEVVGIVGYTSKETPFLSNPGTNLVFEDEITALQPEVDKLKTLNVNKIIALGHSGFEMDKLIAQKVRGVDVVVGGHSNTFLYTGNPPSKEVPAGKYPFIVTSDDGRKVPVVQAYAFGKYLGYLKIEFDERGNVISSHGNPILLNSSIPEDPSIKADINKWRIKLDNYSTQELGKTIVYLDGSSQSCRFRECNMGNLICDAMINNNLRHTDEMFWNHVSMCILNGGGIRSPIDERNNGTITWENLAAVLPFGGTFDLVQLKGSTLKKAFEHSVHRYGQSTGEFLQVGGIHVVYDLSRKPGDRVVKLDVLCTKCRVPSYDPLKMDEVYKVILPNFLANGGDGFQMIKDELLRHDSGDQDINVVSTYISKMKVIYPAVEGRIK
Experimental: as §1, §2

[3] = target: T3, recombinant rat CD73 (Sino Biological 80375-R08H) (rat, UniProt P21588 29-551); assay: Biacore SPR, His-tagged CD73 captured by anti-His antibody on CM5 chip, antibody as analyte
T3 construct: Bought protein; also called rCD73; rat CD73/His
T3 sequence (looked up): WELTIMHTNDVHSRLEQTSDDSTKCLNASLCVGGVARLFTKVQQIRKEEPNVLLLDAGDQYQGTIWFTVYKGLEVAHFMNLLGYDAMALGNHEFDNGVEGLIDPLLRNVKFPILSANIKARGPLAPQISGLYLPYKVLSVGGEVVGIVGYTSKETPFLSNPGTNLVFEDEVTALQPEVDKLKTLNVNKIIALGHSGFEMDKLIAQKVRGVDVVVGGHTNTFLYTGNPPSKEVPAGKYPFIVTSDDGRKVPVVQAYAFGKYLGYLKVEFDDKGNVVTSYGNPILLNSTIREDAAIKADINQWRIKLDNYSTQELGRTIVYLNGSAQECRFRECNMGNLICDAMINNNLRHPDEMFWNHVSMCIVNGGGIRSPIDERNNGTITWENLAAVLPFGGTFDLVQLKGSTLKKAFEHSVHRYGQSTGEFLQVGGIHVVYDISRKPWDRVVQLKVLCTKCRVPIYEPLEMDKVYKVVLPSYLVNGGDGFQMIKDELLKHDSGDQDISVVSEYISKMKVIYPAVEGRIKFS
Experimental: as §1

[4] = target: T4, Recombinant Mouse 5′-Nucleotidase/CD73 Protein, CF (R&D Systems Cat: 4488-EN) (mouse, UniProt Q61503 29-549, limits assumed); assay: as above
T4 construct: Bought protein; also called Mouse CD73-His; recombinant mouse CD73; not shown: His tag
T4 sequence (looked up): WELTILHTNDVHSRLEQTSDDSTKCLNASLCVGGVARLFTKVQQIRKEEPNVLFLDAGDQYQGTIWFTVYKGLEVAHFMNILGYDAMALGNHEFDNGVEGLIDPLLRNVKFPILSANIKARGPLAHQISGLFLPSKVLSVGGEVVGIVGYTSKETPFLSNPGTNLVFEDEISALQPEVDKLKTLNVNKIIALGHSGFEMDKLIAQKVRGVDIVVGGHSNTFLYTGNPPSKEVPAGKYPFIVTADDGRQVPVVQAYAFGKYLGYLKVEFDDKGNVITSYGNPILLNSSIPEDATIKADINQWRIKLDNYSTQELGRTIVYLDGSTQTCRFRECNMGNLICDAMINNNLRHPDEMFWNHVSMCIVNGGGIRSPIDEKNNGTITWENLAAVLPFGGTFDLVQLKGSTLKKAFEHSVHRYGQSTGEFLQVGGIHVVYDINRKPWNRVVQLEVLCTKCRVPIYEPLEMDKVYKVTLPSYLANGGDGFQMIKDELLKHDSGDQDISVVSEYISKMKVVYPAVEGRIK
Experimental: as §1

B1: anti-CD73 antibody 373.A (antibody, human IgG4 S228P, kappa, V domains shown)
VH: EVQLLESGGGLVQPGGSLRLSCAASGFTFHRYAMSWVRQAPGKGLEWVSAISGSGMNTYYADSVKGRFTISRDNSKNTLYLQMNSLRAEDTAVYYCARGGLYGSGSYLSDFDLWGRGTLVTVSS
VL: EIVLTQSPATLSVSPGERATLSCRASQSVGSNLAWYQQKPGQAPRLLIYGASTRATGIPARFSGSGSGTEFTLTISSLQSEDFAVYYCQQHNAFPYTFGGGTKVEIKR
notes: IgG4 S228P format
- Kd [1]: 0.068 nM
- Kd [2]: 0.991 nM
- binding result [3]: no binding
- binding result [4]: no binding
